Where two headings read alike, the source gives them in different places.
Experiments:
[1] = biological target: N-terminus of influenza B nucleoprotein (B/NP_(1-70)) (influenza B virus (strain B/Memphis/13/03)); assay: ITC; MicroCal ITC200; 16 × 2.4 µL injections of 150 µM importin-α7 into 20 µM B/NP_TAIL; 20 mM Tris-HCl pH 7.5, 150 mM NaCl; 20 °C by the methods (25 °C by the legend of Figure 6); triplicate; single-binding site model
[2] = biological target: importin-α1 (Mus musculus) (UniProt P52293); details: cited from earlier work
[3] = biological target: importin-α1 (Mus musculus) (UniProt P52293); details: cited from earlier work; remark: listed apart in the source

Sequence of N-terminus of influenza B nucleoprotein (B/NP_(1-70)) (influenza B virus (strain B/Memphis/13/03)) (P04665 1-70): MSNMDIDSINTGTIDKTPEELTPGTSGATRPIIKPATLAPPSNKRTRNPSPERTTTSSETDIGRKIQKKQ

## human importin-α7 (from UniProt O60684 1-536) (natural protein)
[1]
  Kd: 844 nM
  stoichiometry N: 1

## influenza A nucleoprotein NLS2 213-216 (from UniProt Q289M3)
[2]
  Kd: 70000 nM

## influenza A nucleoprotein tail NTAIL (from UniProt Q289M3)
[3]
  Kd: 1700 nM

— paper PMC5719345
